Positions count from the first letter of the chain named. Where two headings read alike, the source gives them in different places.
T1: recombinant rhesus CD40 (ECD)-hFc (rhesus monkey, UniProt P25942 21-193 (human entry))
T1 construct: Bought protein; also called rhCD40(ECd)-hFc; monkey CD40 (ECD)-hFc
T1 chain: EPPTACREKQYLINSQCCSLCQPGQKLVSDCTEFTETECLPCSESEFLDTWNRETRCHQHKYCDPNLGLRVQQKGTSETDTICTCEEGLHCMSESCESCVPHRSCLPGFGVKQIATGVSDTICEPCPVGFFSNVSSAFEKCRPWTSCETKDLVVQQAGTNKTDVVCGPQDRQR

T2: rhesus CD40 expressed on HEK293A cells (rhesus monkey, UniProt P25942 21-277 (human entry))
T2 construct: also called HEK293A/rhesusCD40
T2 chain: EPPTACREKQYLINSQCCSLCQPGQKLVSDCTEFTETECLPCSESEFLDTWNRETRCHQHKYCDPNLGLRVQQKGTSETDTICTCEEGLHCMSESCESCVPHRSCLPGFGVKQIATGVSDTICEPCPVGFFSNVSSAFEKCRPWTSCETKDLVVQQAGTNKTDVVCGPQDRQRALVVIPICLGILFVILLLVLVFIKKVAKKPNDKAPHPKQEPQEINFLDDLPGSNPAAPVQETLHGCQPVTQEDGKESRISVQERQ

B1: 13A2 (mouse monoclonal antibody) (antibody, V domains shown)
VH: EVKLEQSGPGLVKPSQSLSLTCSVTGYSITTNYYWNWIRQFPGNKLEWMGYINYDGSNNYNPSLKNRISITRDTSKNQFFLKLNSVTTEDTATYYCARLDYWGQGTSVTVSS
VL: DIVMTQSPLSLPVSLGDQASISCRSSQSLENSNGNTFLNWFLQKPGQSPQLLIYKVSNRFSGVLDRFSGTGSGTDFTLTISRVEAEDLGVYFCLQVTHVPFTFGSGTKLEIK
B2: chimeric 13A2 antibody (antibody, human IgG2, kappa, V domains shown)
VH: B1 VH
VL: DIVMTQSPLSLPVSLGDQASISCRSSQSLENSNGNTFLNWFLQKPGQSPQLLIYKVSNRFSGVLDRFSGTGSGTDFTLTISRVEAEDLGVYFCLQVTHVPFTFGSGTKLEIKR
notes: Mouse variable regions with human IgG2/kappa constant regions
B3: 16A6 (mouse monoclonal antibody) (antibody, V domains shown)
VH: B1 VH with K3Q, Y34H, N53K
VL: B1 VL with M4L, P8T, P12S, F76L
B4: 13A2-VH3VL2 (antibody, human IgG2, kappa, V domains shown)
VH: QVQLQESGPGLVKPSDTLSLTCAVSGYSITTNYYWNWIRQPPGNKLEWMGYINYDGSNNYNPSLKNRITISVDTSKNQFSLKLSSVTAVDTAVYYCARLDYWGQGTLVTVSS
VL: DVVLTQSPLSLPVTLGQPASISCRSSQSLENSNGNTFLNWFQQRPGQSPRLLIYKVSNRFSGVPDRFSGSGSGTDFTLKISRVEAEDVGVYYCLQVTHVPFTFGQGTKLEIKR
notes: Humanized, human IgG2/kappa
B5: 13A2-VH3VL3 (antibody, human IgG2, kappa, V domains shown)
VH: B4 VH
VL: B4 VL with Y92F, Q105S
notes: Humanized, human IgG2/kappa
B6: 7B4-VH2VL2 (antibody, V domains shown)
VH: B4 VH with N44K, K45G, N53K
VL: B4 VL
notes: Humanized, human IgG2/kappa; also called 7B4H2L2

Legend:
[1] = target: T3, human CD40 expressed on cells (human, UniProt P25942 21-277); assay: cell-based or functional assay
[2] = target: T4, mouse CD40-hFc (mouse, UniProt P27512 20-193); assay: ELISA, muCD40-hFc coated
T4 construct: Bought protein; also called muCD40-hFc

[3] = target: T5, mouse CD40 expressed on HEK293A cells (mouse, UniProt P27512 20-289); assay: FACS, HEK293A/mouseCD40 cells
T5 construct: also called HEK293A/mouseCD40

[4] = target: T6, recombinant human CD40 (ECD)-his (human, UniProt P25942 21-193); assay: ELISA, hCD40(ECD)-his coated
T6 construct: Bought protein; also called hCD40(ECD)-his; TNFRSF5
Procedure: (§1) ELISA plates were coated with 500 ng/ml human CD40 (ECD)-his (Sino Biological, CN, Cat #: 10774-H08H) at 4° C. overnight. The wells were blocked with 200 μl of blocking buffer (PBS containing 1% BSA, 1% goat serum, and 0.05% Tween 20) for 2 hours at room temperature, and then 100 μl of serially diluted anti-CD40 antibodies (starting from 40000 ng/ml) were added to each well and incubated for 1 hour at RT. Plates were washed for 3 times with PBST (PBS+0.05% Tween 20), added with Goat-anti-mouse IgG-HRP (Simga, US, Cat #: A9309-1 ml) diluted 5000×, and incubated for 1 hour at RT. Plates were developed with freshly prepared Ultra-TMB (BD, US, Cat #: 555214) for 5 minutes at RT. Absorbance was read on a SpectraMax® i3X (Molecular Devies, US) at 450 nm.

[5] = target: T1, recombinant rhesus CD40 (ECD)-hFc; assay: ELISA, rhCD40(ECD)-hFc coated
Procedure: as §1
Species-cross-reactivity of the 20 CD40 mAbs to monkey or mouse CD40 was further assessed by direct ELISA. Briefly, 500 ng/ml monkey CD40 (ECD)-hFc (Sino Biological, CN, Cat #: 90097-C02H) or mouse CD40-hFc (Sino Biological, CN, Cat #: 50324-M03H) was coated on 96-well ELISA plates followed by incubation with 100 μl of serially diluted anti-CD40 antibodies (starting from 40000 ng/ml). Goat anti-mouse IgG conjugated with HRP (Sigma, US, Cat #: A9309-1ml) was used then.

[6] = target: T3, human CD40 expressed on cells; assay: FACS, HEK293A/humanCD40 cells
Procedure: (§2) Example 5 Mouse Anti-CD40 Monoclonal Antibodies Bound to Human and Rhesus CD40 Expressed on HEK293A Cells To further determine whether anti-CD40 antibodies bound to human, monkey or mouse CD40 expressed on HEK293A cells, a cell-based binding assay by FACS was performed using the HEK293A cells stably overexpressing human, monkey or mouse CD40 as generated in Example 1, respectively. Briefly, 10^5 HEK293A cells were seeded into each well of the 96-well plates and serially diluted anti-CD40 antibodies were added to the plates. After incubated at 4° C. for 1 hour, plates were washed 3 times with PBST. Then, an APC coupled Goat Anti-Mouse IgG (BioLegen, US, Cat #: 405308) diluted 500× was added to the plates. After incubation at 4° C. for 1 hour, the plates were washed with PBS for 3 times and then cell fluorescence was monitored using a FACS machine (BD).

[7] = target: T2, rhesus CD40 expressed on HEK293A cells; assay: FACS, HEK293A/rhesusCD40 cells
Procedure: as §2

[8] = target: T6, recombinant human CD40 (ECD)-his; assay: SPR (Biacore 8K), hCD40(ECD)-his coupled to chip, antibody injected
Procedure: SPR assays were used to determine the binding affinity of the chimetic or humanized anti-CD40 antibodies to human CD40 with the BIAcore™ 8K instrument (GE Life Sciences). Briefly, 100-200 response units (RU) of human CD40 (ECD)-his protein (Sino Biological, CN, Cat #: 10774-H08H) were coupled to CM5 biosensor chips (Cat #: BR-1005-30, GE Life Sciences), followed by blocking of un-reacted groups with 1M ethanolamine. Serially diluted antibodies at concentrations ranging from […] were injected into the SPR running buffer (HBS-EP buffer, pH7.4, GE Life Sciences; US; Cat #: BR-1006-69) at 30 μL/minute. The binding capacity was calculated with the RUs of blank controls subtracted. The association rate (k_a) and dissociation rate (k_d) were calculated using the one-to-one Langmuir binding model (BIA Evaluation Software, GE Life Sciences). The equilibrium dissociation constant K_D was calculated as the k_d/k_a ratio.

[9] = target: Full-length CD40 ECD (amino acid 21-193, human CD40) with mFc-tag (human); assay: ELISA on recombinant CD40 ECD proteins with mFc tag (Example 16); antibody concentration not given
[10] = target: T7, CD40 ECD Truncant 1 (amino acid 61-193) with mFc-tag (human); assay: as above
T7 construct: mFc-tag at the C terminus; also called CRD2/3/4

[11] = target: T8, CD40 ECD Truncant 2 (amino acid 104-193) with mFc-tag (human); assay: as above
T8 construct: mFc-tag at the C terminus; also called CRD3/4

[12] = target: T9, CD40 ECD Truncant 3 (amino acid 145-193) with mFc-tag (human); assay: as above
T9 construct: mFc-tag at the C terminus; also called CRD4

[13] = target: T10, CD40 ECD Truncant 4 (amino acid 38-193) with mFc-tag (human); assay: as above
T10 construct: Truncated CRD1; mFc-tag at the C terminus; also called CRD delta1/2/3/4

[14] = target: T11, CD40 ECD Truncant 5 (amino acid 21-37 & 61-193) with mFc-tag (human); assay: as above
T11 construct: Truncated CRD1; mFc-tag at the C terminus; also called CRD delta1/2/3/4

[15] = target: T12, CD40 ECD Mutant 1 (amino acid 21-193, R7A/E8A) with mFc-tag (human); assay: as above
T12 construct: Signal peptide left out

[16] = target: T2, rhesus CD40 expressed on HEK293A cells; assay: FACS on HEK293A/rhesus CD40 cells, serially diluted antibody (Example 14, protocol of Example 5)
Procedure: as §2
The chimeric and humanized anti-CD40 antibodies were further characterized for their ability of binding to HEK293A/humanCD40 cells and HEK293A/rhesus CD40 cells, following the protocols described in Example 5. They were also tested for their ability to activate CD40 signaling in HEK-Blue assay, and to promote dendritic cell maturation, following the protocols in Example 7 and Example 9, respectively, the dendritic cells collected form three healthy human donors. IL-12(p40) secretion by the dendritic cells was measured by using human IL12(p40) ELISA kit (BD, US, Cat #: 551116) following themanufactor's instruction.

[17] = target: T6, recombinant human CD40 (ECD)-his; assay: ELISA on coated recombinant TNFRSF proteins, serially diluted antibody (Example 17)
[18] = target: T6, recombinant human CD40 (ECD)-his; assay: as above; remark: listed apart in the source

T8 sequence (chain, as listed by the source limits assumed): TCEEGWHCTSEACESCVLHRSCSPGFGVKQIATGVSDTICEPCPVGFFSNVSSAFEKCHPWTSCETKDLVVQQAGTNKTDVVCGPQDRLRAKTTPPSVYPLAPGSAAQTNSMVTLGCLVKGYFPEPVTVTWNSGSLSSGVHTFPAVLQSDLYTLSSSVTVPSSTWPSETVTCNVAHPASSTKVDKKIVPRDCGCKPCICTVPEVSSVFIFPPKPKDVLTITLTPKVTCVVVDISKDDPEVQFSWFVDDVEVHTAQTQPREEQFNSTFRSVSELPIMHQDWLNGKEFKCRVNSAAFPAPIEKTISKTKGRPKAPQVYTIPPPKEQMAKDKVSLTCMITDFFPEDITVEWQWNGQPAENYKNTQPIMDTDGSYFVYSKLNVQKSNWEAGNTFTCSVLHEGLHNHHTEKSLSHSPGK
T9 sequence (chain, as listed by the source limits assumed): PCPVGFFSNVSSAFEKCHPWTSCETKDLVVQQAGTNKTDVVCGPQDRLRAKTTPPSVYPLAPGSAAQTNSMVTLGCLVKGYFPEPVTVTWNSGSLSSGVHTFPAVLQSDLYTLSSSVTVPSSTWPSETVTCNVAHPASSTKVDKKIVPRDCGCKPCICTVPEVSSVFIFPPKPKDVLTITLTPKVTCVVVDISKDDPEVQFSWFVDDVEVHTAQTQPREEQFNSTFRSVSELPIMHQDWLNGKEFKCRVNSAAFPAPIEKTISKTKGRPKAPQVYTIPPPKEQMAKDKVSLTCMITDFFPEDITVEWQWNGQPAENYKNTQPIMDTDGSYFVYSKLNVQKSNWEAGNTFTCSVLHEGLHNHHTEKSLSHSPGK
T11 sequence (chain, as listed by the source limits assumed): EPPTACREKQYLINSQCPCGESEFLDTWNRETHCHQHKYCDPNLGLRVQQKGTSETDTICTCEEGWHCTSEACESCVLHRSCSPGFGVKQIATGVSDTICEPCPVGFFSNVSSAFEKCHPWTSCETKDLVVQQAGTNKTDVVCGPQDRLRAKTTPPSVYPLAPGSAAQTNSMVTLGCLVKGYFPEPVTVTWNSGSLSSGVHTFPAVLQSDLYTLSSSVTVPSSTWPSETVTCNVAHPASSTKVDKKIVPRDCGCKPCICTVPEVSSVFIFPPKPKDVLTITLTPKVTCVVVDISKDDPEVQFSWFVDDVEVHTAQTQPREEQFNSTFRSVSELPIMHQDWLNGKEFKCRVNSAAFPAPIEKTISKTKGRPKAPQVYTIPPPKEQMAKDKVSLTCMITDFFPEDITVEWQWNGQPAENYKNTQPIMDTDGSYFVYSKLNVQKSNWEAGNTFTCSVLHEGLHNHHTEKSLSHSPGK
T10 sequence (chain, as listed by the source limits assumed): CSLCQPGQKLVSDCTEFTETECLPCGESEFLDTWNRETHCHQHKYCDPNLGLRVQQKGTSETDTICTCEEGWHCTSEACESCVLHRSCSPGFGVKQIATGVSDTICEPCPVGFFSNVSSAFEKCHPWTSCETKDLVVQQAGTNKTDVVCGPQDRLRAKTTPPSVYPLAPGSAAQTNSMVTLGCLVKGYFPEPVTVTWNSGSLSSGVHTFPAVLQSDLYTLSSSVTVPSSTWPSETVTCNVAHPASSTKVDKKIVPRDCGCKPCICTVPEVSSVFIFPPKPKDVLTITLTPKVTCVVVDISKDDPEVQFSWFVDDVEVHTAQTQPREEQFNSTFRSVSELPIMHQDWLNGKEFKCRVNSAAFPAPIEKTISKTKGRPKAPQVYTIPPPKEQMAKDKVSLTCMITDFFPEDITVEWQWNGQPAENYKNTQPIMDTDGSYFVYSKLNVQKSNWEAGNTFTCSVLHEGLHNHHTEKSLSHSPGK
T3 sequence (P25942 21-277 limits assumed): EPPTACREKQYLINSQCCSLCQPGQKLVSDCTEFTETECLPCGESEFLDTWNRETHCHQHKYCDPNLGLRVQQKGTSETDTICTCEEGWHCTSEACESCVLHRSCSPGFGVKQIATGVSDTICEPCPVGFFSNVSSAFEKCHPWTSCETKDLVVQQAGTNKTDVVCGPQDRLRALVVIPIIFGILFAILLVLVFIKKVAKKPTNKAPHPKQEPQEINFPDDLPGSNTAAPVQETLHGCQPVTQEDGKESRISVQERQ
T12 sequence (chain, as listed by the source limits assumed, stated change not applied): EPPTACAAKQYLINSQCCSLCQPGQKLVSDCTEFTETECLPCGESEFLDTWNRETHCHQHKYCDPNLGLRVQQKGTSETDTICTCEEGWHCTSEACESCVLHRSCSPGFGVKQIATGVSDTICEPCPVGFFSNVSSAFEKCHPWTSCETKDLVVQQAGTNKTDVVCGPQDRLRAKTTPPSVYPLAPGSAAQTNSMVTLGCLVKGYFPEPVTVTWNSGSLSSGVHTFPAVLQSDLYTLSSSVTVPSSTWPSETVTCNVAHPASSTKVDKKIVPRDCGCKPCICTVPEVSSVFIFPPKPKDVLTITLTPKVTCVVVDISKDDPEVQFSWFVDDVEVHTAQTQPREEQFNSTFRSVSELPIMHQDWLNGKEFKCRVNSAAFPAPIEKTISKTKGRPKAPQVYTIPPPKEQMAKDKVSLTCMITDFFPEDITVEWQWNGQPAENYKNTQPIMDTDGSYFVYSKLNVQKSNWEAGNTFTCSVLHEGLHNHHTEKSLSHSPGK
T5 sequence (P27512 20-289 limits assumed): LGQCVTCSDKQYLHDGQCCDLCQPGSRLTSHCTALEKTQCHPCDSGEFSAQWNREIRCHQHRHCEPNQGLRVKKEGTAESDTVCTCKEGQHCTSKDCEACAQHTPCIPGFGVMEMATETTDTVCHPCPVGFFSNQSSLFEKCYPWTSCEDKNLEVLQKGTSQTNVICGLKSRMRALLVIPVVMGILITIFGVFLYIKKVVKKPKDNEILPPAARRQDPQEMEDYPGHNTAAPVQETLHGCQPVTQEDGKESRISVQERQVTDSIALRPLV
T7 sequence (chain, as listed by the source limits assumed): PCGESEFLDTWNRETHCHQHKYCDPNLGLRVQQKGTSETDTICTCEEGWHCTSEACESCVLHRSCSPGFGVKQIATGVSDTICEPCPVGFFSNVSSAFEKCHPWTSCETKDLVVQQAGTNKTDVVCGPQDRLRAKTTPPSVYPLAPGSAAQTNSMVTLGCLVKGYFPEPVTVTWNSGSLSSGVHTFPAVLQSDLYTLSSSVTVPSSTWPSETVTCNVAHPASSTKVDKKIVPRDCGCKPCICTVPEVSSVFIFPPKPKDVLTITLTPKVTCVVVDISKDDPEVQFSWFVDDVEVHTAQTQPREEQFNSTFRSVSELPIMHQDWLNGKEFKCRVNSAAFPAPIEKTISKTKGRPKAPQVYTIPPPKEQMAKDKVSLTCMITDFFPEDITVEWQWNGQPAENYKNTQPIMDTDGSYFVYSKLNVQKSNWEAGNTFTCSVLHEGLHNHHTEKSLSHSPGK
T4 sequence (P27512 20-193): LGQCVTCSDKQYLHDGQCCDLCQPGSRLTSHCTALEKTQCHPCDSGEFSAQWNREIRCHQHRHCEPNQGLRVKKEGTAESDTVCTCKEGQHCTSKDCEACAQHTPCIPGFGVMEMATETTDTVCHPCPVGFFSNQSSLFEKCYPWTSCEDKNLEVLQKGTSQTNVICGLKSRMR

Row | Binder | HEK Blue EC50 [1] [µg/mL] | binding result [2] | binding result [3] | EC50 [4] [µg/mL] | EC50 [5] [µg/mL] | EC50 [6] [µg/mL] | EC50 [7] [µg/mL] | Kd [8] [nM] | koff [8] [s⁻¹] | kon [8] [M⁻¹ s⁻¹] | binding result [9] | binding result [10] | binding result [11] | binding result [12] | binding result [13] | binding result [14] | binding result [15] | binding result [16] | also measured
1 | B1 | 0.0126 | no binding | no binding | 0.0207 | 0.0141 | 0.0485 | 0.0843 | – | – | – | – | – | – | – | – | – | – | – | –
2 | B2 | – | – | no binding | – | – | – | – | 3.58 | 0.00173 | 484000 | binds | no binding | no binding | no binding | no binding | no binding | binds | – | –
3 | B3 | 0.0114 | no binding | no binding | 0.0131 | 0.0129 | 0.0682 | 0.044 | – | – | – | – | – | – | – | – | – | – | – | –
4 | B4 | – | – | – | – | – | – | – | 2.93 | 0.00242 | 825000 | binds | no binding | no binding | no binding | no binding | no binding | binds | binds | –
5 | B5 | – | – | – | – | – | – | – | 7.68 | 0.00459 | 598000 | binds | no binding | no binding | no binding | no binding | no binding | binds | binds | EC50 (read off the curve) [17]: ~0.02 µg/mL
6 | B6 | – | – | – | – | – | – | – | 2.91 | 0.00581 | 2e+06 | – | – | – | – | – | – | – | – | EC50 (read off the curve) [18]: ~0.02 µg/mL; EC50 (read off the curve) [16]: ~0.2 µg/mL
